This sample holds only a part of the variants without activity.
B1: TPR 5TU (parent)
chain: GGAUCUUCUCGAUCUAACAAAAAAGACAAAUCUGCCACAAAGCUUGAGAGCAUCUUCGGAUGCAGAGGCGGCAGCCUUCGGUGGCGCGAUAGCGCCAACGUUCUCAACUAUGACACGCAAAACGCGUGCUCCGUUGAAUGGAGUUUAUCAUG

Variants of: B1
Assay: polymerase ribozyme fitness, log enrichment relative to wild type (log ratio); higher = more active; in vitro selection for triplet polymerase activity
Summary of the method: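 Input and output libraries were sequenced on Illumina after a single in vitro selection round, run in triplicate on PCR-built, transcribed mutant libraries of each subunit of a heterodimeric triplet polymerase ribozyme. Selection annealed libraries to a biotinylated primer, the partner subunit and triplets, incubated them frozen at −7 °C, then gel-excised extended constructs for streptavidin-bead capture and RT-PCR. Genotypes with ≥10 input reads and ≥1 read per output were kept. Fitness is the logarithm, taken in base 2, of genotype enrichment divided by wild-type enrichment, using inverse-variance-weighted replicate averages.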

| Variant | polymerase ribozyme fitness (log ratio) |
| --- | --- |
| GGAUCUUCUCGAUCUAACAUAAAAGACAAAUCUGCCACAAAGCUUGAGAGCAUCUUCGGAAGCAGAGGCGGCAGCCUUCGGUGGCGCGAUAGCGCCAACGUUCUCAACUAUGACACGCAAAACGCGUGCUCCGUUGAAUGGAGUUUAUCAUG [A20U U61A] | -2.43 |
| GGAUCUUCUCGAUCUAACAACAAAGCCAAAUCUGCCACAAAGCUUGAGAGCAUCUUCGGAUGCAGAGGCGCCAGCGUUCGGUGGCGAGAUAGCGCCAACGUUCUCAAUUAUGACACGCAAAACGCGUGCUCCGUUGAAUGGAGUUUAUCAUG [A21C A26C G71C C76G C87A C108U] | ≤ -4.2 |
| GGAUCUUCUCGAUCUAACAUAAAAGACAAAUCUGCCACAAAGCUUGAGAGCAUCUACGGAUGCCGAGGCGGCAGCCUUCGGUGGCGCGAUAGCGCCAACGUUCUCAGCUAUGACACGCAAAACGCUUGCUCCGUUGAAUGGAGUUUAUCAUG [A20U U56A A64C A107G G126U] | ≤ -4.2 |
| GGAUCUUCUCGAUCUAACAACAAGGACAAAUCUGCCAUAAAGCUUGAGAGCAUCUUCGGAUGCAGAGGCGGCAGCCUUCGGUAGCGCGAUAGCGCCAAUGUUCUCAACUAUGACACGCAAAACGCGUGCUCCGUUGAAUGGAGUUUAUCAUG [A21C A24G C38U G83A C99U] | ≤ -4.2 |
| GGAUCUUCUCGAUCUAACAACAAAGACUAAUCUGCCACAAAGCUUGAGAGCAUCUUCGCAUGCAGAGGCGGCAGCCUUCGGUGGCGCGAUAGCGCCGACGUUCUCAACUAUGACACGCAAAACGCGUGCUCCGCUGAAUGGAGUUUAUCAUG [A21C A28U G59C A97G U134C] | ≤ -4.2 |
| GGAUCUUCUCGAUCUAACAUAAAAGACAAAUCUGCCACAAAGCUUGAGAGCAACUUCGGAUGCAGAGGCGGCAGCCUUCGGUGGCGCGAUAGCGCCAACGUUCUCAACUAUGACACGCAGAACGCGUGCUCCGUUGAAUGGAGUUUAUCAUG [A20U U53A A120G] | -2.23 |
| GGAUCUUCUCGAUCUAACAACUAAGACAAAUCUGCCACAAAGCUUGAGAGCAUUUUCGGAUGCAGAGGCGGCGGCCUUCGGUGGCGCGGUAGCGCCAACGUUCUCAACUAUGACACGCAAAACGCGUGCUCCGUUGAAUGGAGUUUAUCAUG [A21C A22U C54U A73G A89G] | -1.48 |
| GGAUCUUCUCGAUCUAACAUAAAAGACAAAUCUGCCACAAAGCUAGAUAGCAUCUUCGGAUGCGGAGGCGGCAGCCUUCGGUGGCGCGAUAGCGCCAACGUUCUCAACUAUGACACGCAAAACGCGUGCUCCGUUGUAUGGAGUUUAUCAUG [A20U U45A G48U A64G A137U] | ≤ -4.2 |
| GGAUCUUCUCGAUCUAACAUAAAAGACAAAUCUGCCACAAAGCUUGAGAGCAACAUCGGAUGCAGAGGCGGCAGCCUUCGGUGGCGCGAUAGCGCCAACGUUCUCAACUAUGACACGGAAAACGCGUGCUCCGUUGAAUGGAGUUUAUCAUG [A20U U53A U55A C118G] | -3.98 |
| GGAUCUUCUCGAUCUAACAUAAAAGACAAAUCUGCCACAAAGCUUGAGAGCAACUUCGGAUGCAGAGGCGGCAGCCUUCGGUGGCGCGAUAGCGCCAACGUUCUCAACUAUGACACGCAAAACGCGUGCUCCGUUGAAUGGAGUUUAUCAUG [A20U U53A] | -2.36 |
| GGAUCUUCUCGAUCUAACAACAAAGACAGAUCUGCCACAAAGCGUGAGAGCAUCUUCGGAUGUAGAGUCGGCAGCCUUCGGUGGCGCGAUAGCGCCAACGUUUUCAACUAUGACACGCAAAACGCGUGCUCCGUUGGAUGGAUUUUAUCAUG [A21C A29G U44G C63U G68U C103U A137G G143U] | ≤ -4.2 |
| GGAUCUUCUCGAUCUAACAACAAUGACAAAUCUGCCACAGAGCUUGAGAGCAUCUUCGGAUGCAGAGGCGGCAGCCUUCGGUGGCGCGAUAGCGCCAACGUUCUCAACUAUGACACGCAAAACGCGUGCUCCGUUGAAUGGAGAUUAUCAUG [A21C A24U A40G U144A] | -3.76 |
| GGAUCUUCUCGAUCUAACAUAAAAGACAAAUCUGCCACAAAGCUUGAGAGCAUCUACGGAUGCAGAGGCGGCAGCCUUCGGUGGCGCGAUAGCGCCAACGUUCUCAACUAUGACACGCAAAACGCGUGCUCCGUUGAAUGGAGUUUAUCAUG [A20U U56A] | -1.87 |
| GGAUCUUCUCGAUCUAACAACAAAGACUAUUCUGCCACAAAGCUUGGGAGCAUCUUCGGAUGCAGAGGCGGCAGCCUUCGGUGGCGCGAUAGCGCCAACGUUCUCAACUAUGACACGCAAAACGCGUGCUCCGUUGAAUGGAGUUUAUCAUG [A21C A28U A30U A47G] | ≤ -4.2 |
| GGAUCUUCUCGAUCUAACAUAAAAGACAAAUCUGCCACAAAGCUUGAGAGCAUCUGCGGAUGCAAAGGCGGCAGCUUUCGGUGGAGCGAUAGCGCCAACGUUCUCAACUAUGACACGCAAAACGCGUGCUCCGUUGAAUGCAGUUUACCAUG [A20U U56G G65A C76U C85A G141C U148C] | ≤ -4.2 |
| GGAUCUUCUCGAUCUAACAACAAUGACAAAUAUGCCACAAAGCUUGAGAGCAUCUUCGGAUGCAGAGGCGGCAGCCUUCAGUGGCGCGAUAGUGACAACGUUCUCAACUAUGACACGCAAAACGCGUGCUCCGUUGAAUGGAGUUUAUCAUG [A21C A24U C32A G80A C93U C95A] | ≤ -4.2 |
| GGAUCUUCUCGAUCUAACAACAAAGUCAAAUCUGCCACAAAGCUUGAGAGCAUCUUCGGCUGCAGAGGCCGCAGCCUUCGAUGUCGCGAUAACGCCAACGUUCUCAACUAUGACUCGCAAAACGCGUGCUCCGUUGAAUGGAGUUUAUCAUG [A21C A26U A60C G70C G81A G84U G92A A115U] | ≤ -4.2 |
| GGAUCUUCUCGAUCUAACAUAAAAGACAAAUCUGCCACAAAGCUUGAGAGCAUCUUCGGAGGCAGAGGCGGCAGCCUUCGGUGGCGUGAUAGCGUCAACGUUCUCAACUAUGACACGCAAAACGCGUGCUCCGUUGAAUGGAGUUUAUCAUG [A20U U61G C87U C95U] | -3.33 |
| GGAUCUUCUCGAUCUAACAUAAAAGACAAAUCUGCCACAAAGCUUGAGAGCAUCAUCGGAUGCAGAGUCGGCAGCCUUCGGUGGGGCGAUAGCGCCAACGUUCUUAACUAUGACACGCAAAACACGUGCUCCGUUGAAUCGAGUUUAUCAUG [A20U U55A G68U C85G C105U G124A G140C] | ≤ -4.2 |

Source: the RNAGym collection of RNA variant scans (doi:10.1073/pnas.2313332121)
